What was measured:
[1] = molecular target: LxT peptide library (x-x-x-x-Leu-x-Thr-x-x-x peptides with a fixed lysine tail K-K-K)
[2] = molecular target: R-T peptide library (arginine fixed at the -1 position of a threonine phosphoacceptor)
[3] = molecular target: MBP-AMPKa (1-312) bacterial fusion protein
[4] = molecular target: T1, STRAD (human, from pCDNA4 HisMax), Q7RTN6
T1 chain: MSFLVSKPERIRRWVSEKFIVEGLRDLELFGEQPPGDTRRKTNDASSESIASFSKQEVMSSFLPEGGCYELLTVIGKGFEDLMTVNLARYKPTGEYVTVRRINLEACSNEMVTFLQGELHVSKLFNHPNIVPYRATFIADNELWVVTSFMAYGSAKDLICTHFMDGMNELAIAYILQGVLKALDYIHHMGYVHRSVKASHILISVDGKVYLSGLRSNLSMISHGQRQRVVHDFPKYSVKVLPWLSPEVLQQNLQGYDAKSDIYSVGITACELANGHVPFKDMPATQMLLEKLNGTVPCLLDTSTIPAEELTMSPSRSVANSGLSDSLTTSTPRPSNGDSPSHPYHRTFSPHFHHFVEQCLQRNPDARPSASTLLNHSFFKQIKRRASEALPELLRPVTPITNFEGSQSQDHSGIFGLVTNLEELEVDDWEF

Row | Protein | phosphorylation of degenerate peptide libraries (32P incorporation, p81 paper) [1] | phosphorylation of degenerate peptide libraries (32P incorporation, p81 paper) [2] | AMPK kinase activity towards the SAMS peptide after in vitro phosphorylation by LKB1 [3] | trans-phosphorylation of MBP-AMPKα in vitro [3] | LKB1 autophosphorylation in vitro [4] | in vitro phosphorylation of MBP-AMPKα (32P incorporation; phospho-Thr172 immunoblot) [3] | phosphorylation of the SAMS peptide (32P γ-ATP) (SAMS peptide) | AMPK kinase activity towards the SAMS peptide after in vitro kinase reaction with LKB1 [3]
1 | STRAD-activated LKB1 (Flag-tagged wild-type human LKB1 co-expressed with STRAD, Flag immunoprecipitate) (protein) chain 1: MEVVDPQQLGMFTEGELMSVGMDTFIHRIDSTEVIYQPRRKRAKLIGKYLMGDLLGEGSYGKVKEVLDSETLCRRAVKILKKKKLRRIPNGEANVKKEIQLLRRLRHKNVIQLVDVLYNEEKQKMYMVMEYCVCGMQEMLDSVPEKRFPVCQAHGYFCQLIDGLEYLHSQGIVHKDIKPGNLLLTTGGTLKISDLGVAEALHPFAADDTCRTSQGSPAFQPPEIANGLDTFSGFKVDIWSAGVTLYNITTGLYPFEGDNIYKLFENIGKGSYAIPGDCGPPLSDLLKGMLEYEPAKRFSIRQIRQHSWFRKKHPPAEAPVPIPPSPDTKDRWRSMTVVPYLEDLHGADEDEDLFDIEDDIIYTQDFTVPGQVPEEEASHNGQRRGLPKAVCMNGTEAAQLSTKSRAEGRAPNPARKACSASSKIRRLSACKQQ chain 2: MSFLVSKPERIRRWVSEKFIVEGLRDLELFGEQPPGDTRRKTNDASSESIASFSKQEVMSSFLPEGGCYELLTVIGKGFEDLMTVNLARYKPTGEYVTVRRINLEACSNEMVTFLQGELHVSKLFNHPNIVPYRATFIADNELWVVTSFMAYGSAKDLICTHFMDGMNELAIAYILQGVLKALDYIHHMGYVHRSVKASHILISVDGKVYLSGLRSNLSMISHGQRQRVVHDFPKYSVKVLPWLSPEVLQQNLQGYDAKSDIYSVGITACELANGHVPFKDMPATQMLLEKLNGTVPCLLDTSTIPAEELTMSPSRSVANSGLSDSLTTSTPRPSNGDSPSHPYHRTFSPHFHHFVEQCLQRNPDARPSASTLLNHSFFKQIKRRASEALPELLRPVTPITNFEGSQSQDHSGIFGLVTNLEELEVDDWEF | leucine at the -2 position was strongly selected | Arginine in the -1 position was selected over random amino acids | induced AMPK kinase activity an average of 27 and 50 fold, respectively | co-expression of LKB1 with STRAD led to a dramatic proportional increase in LKB1 autophosphorylation and trans-phosphorylation of MBP-AMPKα | – | – | – | –
2 | Flag-tagged human LKB1, wild-type, immunoprecipitated from HT1080 cells (protein) MEVVDPQQLGMFTEGELMSVGMDTFIHRIDSTEVIYQPRRKRAKLIGKYLMGDLLGEGSYGKVKEVLDSETLCRRAVKILKKKKLRRIPNGEANVKKEIQLLRRLRHKNVIQLVDVLYNEEKQKMYMVMEYCVCGMQEMLDSVPEKRFPVCQAHGYFCQLIDGLEYLHSQGIVHKDIKPGNLLLTTGGTLKISDLGVAEALHPFAADDTCRTSQGSPAFQPPEIANGLDTFSGFKVDIWSAGVTLYNITTGLYPFEGDNIYKLFENIGKGSYAIPGDCGPPLSDLLKGMLEYEPAKRFSIRQIRQHSWFRKKHPPAEAPVPIPPSPDTKDRWRSMTVVPYLEDLHGADEDEDLFDIEDDIIYTQDFTVPGQVPEEEASHNGQRRGLPKAVCMNGTEAAQLSTKSRAEGRAPNPARKACSASSKIRRLSACKQQ | – | – | induced AMPK kinase activity an average of 27 and 50 fold, respectively | – | co-expression of LKB1 with STRAD led to a dramatic proportional increase in LKB1 autophosphorylation | wild-type but not kinase-dead LKB1 immunoprecipitated from mammalian cells efficiently phosphorylated a bacterially expressed maltose-binding protein (MBP) fusion product of the AMPKα catalytic subunit in vitro | LKB1 alone was incapable of detectably phosphorylating the SAMS peptide | –
3 | Flag-tagged human LKB1, kinase dead (K78I), immunoprecipitated from HT1080 cells (protein) MEVVDPQQLGMFTEGELMSVGMDTFIHRIDSTEVIYQPRRKRAKLIGKYLMGDLLGEGSYGKVKEVLDSETLCRRAVIILKKKKLRRIPNGEANVKKEIQLLRRLRHKNVIQLVDVLYNEEKQKMYMVMEYCVCGMQEMLDSVPEKRFPVCQAHGYFCQLIDGLEYLHSQGIVHKDIKPGNLLLTTGGTLKISDLGVAEALHPFAADDTCRTSQGSPAFQPPEIANGLDTFSGFKVDIWSAGVTLYNITTGLYPFEGDNIYKLFENIGKGSYAIPGDCGPPLSDLLKGMLEYEPAKRFSIRQIRQHSWFRKKHPPAEAPVPIPPSPDTKDRWRSMTVVPYLEDLHGADEDEDLFDIEDDIIYTQDFTVPGQVPEEEASHNGQRRGLPKAVCMNGTEAAQLSTKSRAEGRAPNPARKACSASSKIRRLSACKQQ | – | – | – | – | – | wild-type but not kinase-dead LKB1 immunoprecipitated from mammalian cells efficiently phosphorylated | – | Kinase-inactive LKB1 alone or coexpressed with STRAD was unable to activate AMPK

Reference: patent publication US20080194019
